Consider 1 substance from publication PMC9510126, “Hydrophobicity is a key determinant in the activity of arginine-rich cell penetrating peptides” (Scientific Reports, 2022).

“Also recorded” adds a separate entry of the source. Ends that are not written are not given here.

The nature of data set [1]: C18 reverse phase HPLC hydrophobicity of (X)TAT and d(X)TAT peptides. The data set is classed as physicochemical. Conditions: chromatographic, C18, 0–40% B over 20 min, 0.1% TFA (pH 2); ranking within the d(X)TAT series. Here is the method:
In order to assess the hydrophobicity contributed by each X group, the peptides were first analyzed by reverse phase HPLC using a C18 column, using gradients of buffer A (water/TFA 99.9:0.1) and buffer B (acetonitrile/water/TFA 89.9:10:0.1 v:v:v) (gradient of 0–40% B over 20 min). […] All d(X)TAT peptides eluted over a range of 10–35% acetonitrile. […] One caveat of this approach is that the buffer system used for peptide analysis is pH 2 (due to the presence of TFA, required to protonate residue side chains). However, pH 2 is not representative of the pH that CPPs may be exposed to when in contact with cells, either pH 7.2 outside the plasma membrane, or pH between 6.5 and 4.5 while inside acidic endosomes. In order to establish the relative hydrophobicities of d(X)TAT peptides at these pHs, we sought to use other techniques, including thin layer chromatography using C18, aluminum oxide or silica stationary phases. Unfortunately, the arginine-rich peptides could not be separated on these systems. To solve this problem, each individual X group was synthesized, using acetylated and amidated N and C-terminal positions to mimic the peptide backbone found in the d(X)TAT constructs (Fig. 1A, Figure S11). Each Ac-X-NH2 group was analyzed by HPLC and by RP18 TLC, using 40% acetonitrile and 60% PBS as mobile phase. The HPLC elutions of Ac-X-NH2 correlated with the HPLC elutions of their respective d(X)TAT counterparts (Fig. 1C). Similarly, the relative hydrophobicities of Ac-X-NH2 determined by TLC (measured as 1-Rf) at pH 4 or 8 were in good agreement with the results obtained by HPLC (Fig. 1D). […] In the case of DEAC, the protonation state of the fluorophore has, to our knowledge, not been characterized.
All rpHPLC retention times were analyzed using an Agilent HP 1200 series instrument on an analytical Phenomenex Luna Omega Polar C18 column (5 μm, 4.6 mm × 250 mm). The flow rate was 2 mL/min, and detection was at 214 nm. A binary solvent system was used comprising 99.9% H2O/0.1% TFA (solvent A) and 90% Acetonitrile/9.9% H2O/0.1% TFA (solvent B). […]

Data set [2] can be described thus: Zeta potential of BMP LUVs in contact with peptides. It is filed as binding. Conditions: 0.33 µM peptide, 50 µM lipid (P:L 1:150), PBS pH 5.5, 25 °C, triplicate. How it is done: The interaction partners of CPPs that may mediate direct plasma membrane translocation remain undefined. It is therefore unclear which liposome system can be used to probe this activity. […] This permeabilization is consistent with a leaky fusion process, where peptide-induced contact between liposomes is required for leakage. In order to assess whether similar processes are involved with peptides of the d(X)TAT series, LUVs were loaded with calcein to probe leakage. LUVs were prepared with either 65:15:20 PC:PE:Chol or 77:19:4 BMP:PC:PE, lipid compositions consistent with plasma membrane /early endosomes (PM/EE) bilayers or late endosome (LE) bilayers, respectively[36],[37]. Peptides were added to liposomes suspensions at various peptide-to-lipid ratios, and the release of calcein was monitored by gel filtration. […] The mixtures were then added to a folded capillary zeta cell for measurement on a Zetasizer Nano-zs (Malvern). Instrument was set to hold at 25 °C and automatically determine the optimal voltage and attenuator positions for each measurement. Each sample was set to be measured three times by the instrument and the average of these measurements was used to determine the zeta potential for a single sample. This experiment was performed in triplicate for each condition.

For the substance “d(K(Ac))TAT: disulfide dimer of CXRKKRRQRRRG with X = lysine conjugated to an acetyl group (CK(Ac)RKKRRQRRRG-NH2; also: disulfide dimer)”, the “relative hydrophobicity of X group by C18 HPLC” value in data set [1] was “least hydrophobic; also recorded: lowest peptide on the hydrophobicity scale”. The “effect on apparent zeta potential of BMP-rich LUVs” value in data set [2] is reported as “largest effect”.
